Molecular target: plasminogen
Assay: cell-based or functional assay

## Bacteriophages which harbored K2S on gp3 (K2S-φ) (from UniProt P00750 209-562)
  fibrinogen-dependent enzymatic activity (amidolytic assay with plasminogen and S-2251): < 0.25 IU/ml

Source: patent EP1343909B1
